Assay results: patent US20220403005

Assays:
[1] = system: wild-type B-domain deleted FVIII (FVIII-WT)
[2] = system: FVIII-R336Q/R562Q (FVIII-QQ)
Chain of FVIII-R336Q/R562Q (FVIII-QQ) (chain, as listed by the source R336Q R562Q): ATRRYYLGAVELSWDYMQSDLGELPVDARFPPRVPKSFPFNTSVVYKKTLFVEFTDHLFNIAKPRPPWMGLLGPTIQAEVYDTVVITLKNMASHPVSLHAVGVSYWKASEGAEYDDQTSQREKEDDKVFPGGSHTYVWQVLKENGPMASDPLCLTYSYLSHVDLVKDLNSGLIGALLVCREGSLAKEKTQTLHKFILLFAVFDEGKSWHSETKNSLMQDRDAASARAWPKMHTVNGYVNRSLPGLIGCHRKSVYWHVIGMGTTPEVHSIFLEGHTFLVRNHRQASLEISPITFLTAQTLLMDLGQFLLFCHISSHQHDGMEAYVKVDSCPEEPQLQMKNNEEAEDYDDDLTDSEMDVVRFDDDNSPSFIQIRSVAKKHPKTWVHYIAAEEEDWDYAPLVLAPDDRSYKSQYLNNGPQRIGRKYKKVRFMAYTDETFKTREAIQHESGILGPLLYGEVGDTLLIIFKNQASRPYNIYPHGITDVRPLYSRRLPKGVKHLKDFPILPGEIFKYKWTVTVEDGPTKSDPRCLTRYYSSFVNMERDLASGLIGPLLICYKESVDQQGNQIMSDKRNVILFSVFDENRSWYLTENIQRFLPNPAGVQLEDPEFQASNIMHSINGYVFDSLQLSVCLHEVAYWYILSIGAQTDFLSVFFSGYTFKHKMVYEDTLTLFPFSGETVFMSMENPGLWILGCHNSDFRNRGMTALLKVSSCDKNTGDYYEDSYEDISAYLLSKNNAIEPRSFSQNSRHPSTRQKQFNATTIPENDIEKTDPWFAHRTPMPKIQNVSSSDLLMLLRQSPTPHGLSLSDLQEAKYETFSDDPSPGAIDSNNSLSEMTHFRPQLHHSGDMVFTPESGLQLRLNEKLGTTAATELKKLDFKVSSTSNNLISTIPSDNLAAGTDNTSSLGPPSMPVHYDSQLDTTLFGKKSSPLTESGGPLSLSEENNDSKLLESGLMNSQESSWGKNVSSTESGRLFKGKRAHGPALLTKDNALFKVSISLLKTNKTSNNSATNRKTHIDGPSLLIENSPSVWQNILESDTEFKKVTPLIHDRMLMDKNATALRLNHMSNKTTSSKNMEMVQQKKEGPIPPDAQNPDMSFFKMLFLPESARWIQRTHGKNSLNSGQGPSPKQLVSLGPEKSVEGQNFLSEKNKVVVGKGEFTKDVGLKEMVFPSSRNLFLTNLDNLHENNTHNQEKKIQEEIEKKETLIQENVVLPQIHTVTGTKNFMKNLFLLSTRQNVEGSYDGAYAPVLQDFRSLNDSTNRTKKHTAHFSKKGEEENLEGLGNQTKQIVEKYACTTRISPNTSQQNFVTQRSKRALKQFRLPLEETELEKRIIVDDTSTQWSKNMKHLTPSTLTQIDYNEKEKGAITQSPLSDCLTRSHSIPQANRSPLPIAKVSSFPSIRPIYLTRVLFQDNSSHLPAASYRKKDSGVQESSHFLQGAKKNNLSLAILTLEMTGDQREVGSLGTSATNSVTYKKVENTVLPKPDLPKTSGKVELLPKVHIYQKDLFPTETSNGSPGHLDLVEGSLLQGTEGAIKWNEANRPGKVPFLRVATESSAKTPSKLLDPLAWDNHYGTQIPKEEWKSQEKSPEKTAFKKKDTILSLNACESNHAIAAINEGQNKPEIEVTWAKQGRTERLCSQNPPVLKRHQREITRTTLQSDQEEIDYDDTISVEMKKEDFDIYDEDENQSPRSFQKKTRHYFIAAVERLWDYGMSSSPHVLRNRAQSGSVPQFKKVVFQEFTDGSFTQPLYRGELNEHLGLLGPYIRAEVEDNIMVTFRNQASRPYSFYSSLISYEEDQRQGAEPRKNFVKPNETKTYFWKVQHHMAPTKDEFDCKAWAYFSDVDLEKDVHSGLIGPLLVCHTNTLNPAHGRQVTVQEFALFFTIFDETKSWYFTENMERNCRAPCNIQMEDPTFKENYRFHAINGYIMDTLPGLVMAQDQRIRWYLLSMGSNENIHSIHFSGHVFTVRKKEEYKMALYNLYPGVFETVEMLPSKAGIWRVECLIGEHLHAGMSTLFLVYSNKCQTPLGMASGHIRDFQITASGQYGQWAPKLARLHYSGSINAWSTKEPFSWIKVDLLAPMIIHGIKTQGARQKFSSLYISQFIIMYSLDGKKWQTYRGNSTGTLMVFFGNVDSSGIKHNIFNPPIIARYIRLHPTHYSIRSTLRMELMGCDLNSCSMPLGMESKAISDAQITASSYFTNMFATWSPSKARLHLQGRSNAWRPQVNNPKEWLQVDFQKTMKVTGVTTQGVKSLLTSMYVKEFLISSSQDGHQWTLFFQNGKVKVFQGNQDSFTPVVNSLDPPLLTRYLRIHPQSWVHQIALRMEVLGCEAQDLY

Chain of wild-type B-domain deleted FVIII (FVIII-WT) (chain, as listed by the source, stated change not applied): as the sequence (chain, as listed by the source R336Q R562Q) above, with Q336R, Q562R counted along it
Chain of FVIII-R372Q (chain, as listed by the source R372Q): as the sequence (chain, as listed by the source R336Q R562Q) above, with Q336R, R372Q, Q562R counted along it

Substance | SDS-PAGE of cleavage products after incubation with thrombin [1] | SDS-PAGE of cleavage products after incubation with thrombin [2] | loss of FVIII activity (intrinsic Xase assay) after 1-hour APC incubation [1] | residual FVIII activity (intrinsic Xase assay) after incubation with 6 nM APC and 100 nM protein S [1] | western blot of reaction products after 30-minute incubation with APC (FVIII-R372Q) | residual FVIII activity (intrinsic Xase assay) after 1-hour APC incubation [2] | residual FVIII activity (intrinsic Xase assay) after incubation with 6 nM APC and 100 nM protein S [2]
thrombin | Thrombin cleaved both proteins to yield fragments representing cleavage at R1689 (A3-C1-C2; Mr=70,000) and R740/R372 (A1, Mr=50,000 and A2, Mr=43,000), corresponding to FVIIIa | Thrombin cleaved both proteins to yield fragments representing cleavage at R1689 (A3-C1-C2; Mr=70,000) and R740/R372 (A1, Mr=50,000 and A2, Mr=43,000), corresponding to FVIIIa |  |  |  |  | 
activated protein C (APC) |  |  | FVIII-WT lost approximately 75% activity after a 1-hour APC incubation | FVIII-WT lost nearly all function within 15 minutes of combined APC and PS incubation | incubating a FVIII-R372Q mutant with APC, which did not produce the A2 fragment | the protein maintained >90% activity following a 1-hour APC incubation | combined PS and APC incubation also accelerated FVIII-QQ loss of function, albeit to a lesser extent than FVIII-WT
